Here are results for 2 proteins from publication doi:10.1101/2025.11.04.686606, “The C-terminal intrinsically disordered region of a fungal LPMO binds copper and displays anti-fungal properties” (bioRxiv, 2025).

Data set [1] concerns the molecule itself. As to the kind of experiment: SAXS; P3 at 2 mg/mL; conformational ensembles from 1 us MD simulations refined against SAXS data (Bayesian maximum entropy).
Data set [2] concerns the molecule itself. Kind of data set: SEC-MALLS; Superdex200 10/300 GL Increase, 50 mM MES pH 6.5, 150 mM NaCl; protein conjugate analysis for glycans.

B1: P3 peptide, last 25 residues of PcoAA14A_dCTR (peptide, UniProt A0A2I6QAZ5 404-428, looked up)
peptide: CKPRPSGVAAQKKKRKHARHLHNAH
notes: the last 25 residues of PcoAA14A of Pycnoporus coccineus, starting with a Cys corresponding to Cys404; Unlabelled peptide in EPR and SAXS; the 5-FAM labelled form was used only on fungal spores; source: synthetic peptide, bought: GenScript
In general, stoichiometry N refers to the number of molecules, sites or subunits per partner or assembly. For the protein B1, the “stoichiometry N” value in data set [1] is 2.

B2: PcoAA14A_FL, full-length AA14A lytic polysaccharide monooxygenase from Pycnoporus coccineus (enzyme, UniProt A0A2I6QAZ5 22-428, looked up)
chain: HAAFWDKSMYGFNVTAQTFPYDNRPQVPLYNMTFDQWWFHGHKDYPPNEGDFFELPAGGEVNSIISCDKGATPFYESSPGGDSGYGSNSPCPGQPMSEYHTTGIDDVKGCCMAIAYKPDVNDVQPDDFVVFSCNSTCVWEMNTKFEIPKLPACPEGGCHCAWFWIHSYDSGAEQIYMNGFKCKVTGDVGTQPLGKPAVPRRCGADPDHGKPDPTPGNCTIGAKTPMYWYQREGNNMFEDTYDAPYYNPLYGFNDGAQNDIFMDGVIASLASSGTGSSPTSTVDSSSSAAAASTSYPAQPTSSTQDAPGSSAYPSSSSDSVNSPTTQPYPASSASSTSEAQTTPAAVPTSVATEASSSPIASTTVDEAVVSSSTVGSINPTRSCKPRPSGVAAQKKKRKHARHLHNAH
modifications: glycosylated (glycans 34% of the molar mass by SEC-MALLS)
notes: PcoAA14A, AA14 family LPMO of Pycnoporus coccineus (syn. Trametes coccinea), Genbank KY769369; catalytic domain followed by a dCTR of 137 residues; theoretical mass 46 kDa; Expressed from pPICZalphaA; source: Pichia pastoris SuperMan5, secreted, purified (HisTrap); not shown: His6, C-terminal, kept
For the protein B2, the “stoichiometry N” value in data set [2] was 2.
